Measured values taken from article PMC5772552.

Tests used:
Assay in all cases: ELISA; semi-quantitative; plate coated with 30 nM protein (GST-tagged cohesin) in 0.1 M Na2CO3 pH 9.6 at 4 °C; His6-tagged dockerin 10 pM-1 μM in TBS with 1 mM CaCl2 and 1% BSA, 1 h, room temperature; anti-6xHis and HRP secondary antibody; fit with Hill equation
[1] = molecular target: BSA (bovine (from the name BSA)) (UniProt P02769)
[2] = molecular target: GST-Coh1 (from plasmid pGEX-Coh1) (Clostridium thermocellum)
[3] = molecular target: GST-Cohwt (from plasmid pGEX-Cohwt) (Clostridium thermocellum) (UniProt Q06851)

Sequence of UniProt P02769 (P02769 25-607): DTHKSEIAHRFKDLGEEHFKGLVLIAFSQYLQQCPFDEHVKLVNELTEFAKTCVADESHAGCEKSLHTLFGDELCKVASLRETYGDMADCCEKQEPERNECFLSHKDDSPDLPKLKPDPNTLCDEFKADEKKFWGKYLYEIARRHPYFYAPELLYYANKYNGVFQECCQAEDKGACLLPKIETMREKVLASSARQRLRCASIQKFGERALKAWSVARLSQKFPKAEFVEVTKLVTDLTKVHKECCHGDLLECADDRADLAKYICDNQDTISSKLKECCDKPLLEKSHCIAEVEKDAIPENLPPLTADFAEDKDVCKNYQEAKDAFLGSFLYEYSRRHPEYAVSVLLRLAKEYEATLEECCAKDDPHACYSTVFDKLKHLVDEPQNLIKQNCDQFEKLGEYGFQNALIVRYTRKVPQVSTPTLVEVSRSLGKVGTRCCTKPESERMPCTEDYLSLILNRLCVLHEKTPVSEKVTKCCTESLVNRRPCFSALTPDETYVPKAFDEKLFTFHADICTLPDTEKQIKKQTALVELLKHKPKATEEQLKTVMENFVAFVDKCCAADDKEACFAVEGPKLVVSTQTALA

## MBP-X6b-Docwt-His6 (from plasmid pMAL-Docwt) (from UniProt P51584 733-791) (domain or fragment)
[1]
  Kd: > 1000 nM
[2]
  Kd: > 500 nM
[3]
  Kd: 0.77 nM
